In patent publication US10590193 (dated 2020):

What was measured:
[1] = target: T1, mouse VEGF164 (mouse, UniProt Q00731); test: SPR, pH 5
T1 chain: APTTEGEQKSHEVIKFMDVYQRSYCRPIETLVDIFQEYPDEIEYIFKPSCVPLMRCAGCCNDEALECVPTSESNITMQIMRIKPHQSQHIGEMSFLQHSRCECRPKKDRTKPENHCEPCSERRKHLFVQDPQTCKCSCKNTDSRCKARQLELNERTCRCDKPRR

[2] = target: T2, rat VEGF164 (rat, UniProt P16612); test: SPR, pH 5
T2 chain: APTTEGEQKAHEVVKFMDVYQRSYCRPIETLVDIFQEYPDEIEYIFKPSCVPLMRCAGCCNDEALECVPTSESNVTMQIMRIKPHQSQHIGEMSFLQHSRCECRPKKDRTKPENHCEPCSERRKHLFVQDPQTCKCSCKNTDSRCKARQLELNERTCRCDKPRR

[3] = target: T3, human VEGF165 (human, UniProt P15692); test: SPR, pH 5
T3 chain: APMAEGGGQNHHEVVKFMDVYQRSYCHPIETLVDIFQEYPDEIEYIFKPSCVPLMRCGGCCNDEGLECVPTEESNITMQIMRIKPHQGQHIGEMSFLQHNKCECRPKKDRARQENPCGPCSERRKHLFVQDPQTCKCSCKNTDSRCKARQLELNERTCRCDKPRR

[4] = target: T1, mouse VEGF164; test: SPR, pH 7.4
[5] = target: T2, rat VEGF164; test: SPR, pH 7.4
[6] = target: T1, mouse VEGF164; test: SPR, pH 5
[7] = target: T4, human VEGF121 (human, UniProt P15692); test: SPR, pH 5
T4 chain: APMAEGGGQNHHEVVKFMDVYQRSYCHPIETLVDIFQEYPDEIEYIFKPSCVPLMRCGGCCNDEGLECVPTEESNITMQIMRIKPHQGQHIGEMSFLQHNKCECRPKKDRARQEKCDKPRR

[8] = target: T2, rat VEGF164; test: SPR, pH 5
[9] = target: T5, human VEGF110 (human, UniProt P15692); test: SPR, pH 5
T5 chain: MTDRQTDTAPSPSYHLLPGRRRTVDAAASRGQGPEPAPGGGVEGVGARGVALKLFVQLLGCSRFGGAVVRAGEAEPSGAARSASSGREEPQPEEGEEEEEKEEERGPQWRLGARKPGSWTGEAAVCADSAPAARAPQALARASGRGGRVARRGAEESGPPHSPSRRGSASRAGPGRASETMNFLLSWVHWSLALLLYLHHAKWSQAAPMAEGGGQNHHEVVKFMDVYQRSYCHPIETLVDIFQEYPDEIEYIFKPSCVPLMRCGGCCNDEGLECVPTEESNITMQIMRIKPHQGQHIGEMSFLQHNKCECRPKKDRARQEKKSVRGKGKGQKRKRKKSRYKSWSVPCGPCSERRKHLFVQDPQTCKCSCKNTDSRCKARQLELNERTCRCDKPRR

[10] = target: T6, human PlGF (human, UniProt P49763); test: SPR, pH 5
T6 chain: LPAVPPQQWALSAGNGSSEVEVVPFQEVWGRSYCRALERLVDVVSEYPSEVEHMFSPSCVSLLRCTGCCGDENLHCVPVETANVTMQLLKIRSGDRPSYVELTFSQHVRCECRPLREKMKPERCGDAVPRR

[11] = target: T3, human VEGF165; test: SPR, pH 5
[12] = target: T3, human VEGF165; test: SPR, pH 7.4
[13] = target: T3, human VEGF165; test: SPR, pH 5
[14] = target: T3, human VEGF165; test: SPR, pH 7.4
[15] = target: T3, human VEGF165; test: SPR, pH 7.4
[16] = target: T3, human VEGF165; test: competition, VEGFR2 ELISA

| Binder | Kd [1] [nM] | Kd [2] [nM] | Kd [6] [nM] | Kd [7] [nM] | Kd [8] [nM] | Kd [9] [nM] | binding result [10] | Kd [11] [nM] | Kd [12] [nM] | also measured |
| --- | --- | --- | --- | --- | --- | --- | --- | --- | --- | --- |
| 578minmax FW1.4_DHP (961) (antibody, V domains shown) VH: EVQLVESGGGSVQPGGSLRLSCTASGFSLTDYYYMTWVRQAPGKGLEWVGFIDPDDDPYYATWAKGRFTISRDTSKNTVYLQMNSLRAEDTATYYCAGGDHNSGWGLDIWGQGTTVTVSS VL: EIVMTQSPSTLSASVGDRVIITCQASEIIHSWLAWYQQKPGKAPKLLIYLASTLASGVPSRFSGSGSGAEFTLTISSLQPDDFATYYCQNVYLASTNGANFGQGTKLTVLG | 0.608 | 0.845 |  |  |  |  |  |  |  | Kd [3]: 0.576 nM |
| 578min_max T84N_V89L_DHP (1017) (antibody, V domains shown) VH: EVQLVESGGGSVQPGGSLRLSCTASGFSLTDYYYMTWVRQAPGKGLEWVGFIDPDDDPYYATWAKGRFTISRDNSKNTLYLQMNSLRAEDTATYYCAGGDHNSGWGLDIWGQGTTVTVSS VL: EIVMTQSPSTLSASVGDRVIITCQASEIIHSWLAWYQQKPGKAPKLLIYLASTLASGVPSRFSGSGSGAEFTLTISSLQPDDFATYYCQNVYLASTNGANFGQGTKLTVLG | 1.46 | 1.82 |  |  |  |  |  |  |  |  |
| 578min_max T84N_V89L (1008) (antibody, V domains shown) VH: EVQLVESGGGLVQPGGSLRLSCTASGFSLTDYYYMTWVRQAPGKGLEWVGFIDPDDDPYYATWAKGRFTISRDNSKNTLYLQMNSLRAEDTAVYYCAGGDHNSGWGLDIWGQGTLVTVSS VL: EIVMTQSPSTLSASVGDRVIITCQASEIIHSWLAWYQQKPGKAPKLLIYLASTLASGVPSRFSGSGSGAEFTLTISSLQPDDFATYYCQNVYLASTNGANFGQGTKLTVLG | 1.53 | 1.89 |  |  |  |  |  |  |  | Kd [3]: 1.59 nM |
| 578minmax (903) (antibody, V domains shown) VH: EVQLVESGGGLVQPGGSLRLSCTASGFSLTDYYYMTWVRQAPGKGLEWVGFIDPDDDPYYATWAKGRFTISRDTSKNTVYLQMNSLRAEDTAVYYCAGGDHNSGWGLDIWGQGTLVTVSS VL: EIVMTQSPSTLSASVGDRVIITCQASEIIHSWLAWYQQKPGKAPKLLIYLASTLASGVPSRFSGSGSGAEFTLTISSLQPDDFATYYCQNVYLASTNGANFGQGTKLTVLG | 0.567 | 0.748 |  |  |  |  |  |  |  | Kd [3]: 0.625 nM; Kd [4]: 0.0273 nM; Kd [5]: 0.0219 nM |
| 509-maxII (antibody, V domains shown) VH: EVQLVESGGGLVQPGGSLRLSCTASGFSLSSYYMSWVRQAPGKGLEWVGILDYVGDTDYASWAKGRFTISKDASKNTVYLQMNSLRAEDTAVYYCARTDDSRGWGLNIWGQGTLVTVSS VL: EIVMTQSPSTLSASVGDRVIITCQASQNIRIWLSWYQQKPGKAPKLLIYKASTLESGVPSRFSGSGSGTEFTLTISSLQPDDFATYYCQNNAHYSTNGGTFGQGTKLTVLG |  |  | 1.73 | 1.37 | 1.81 | 1.48 | no binding | 3.37 | 2.61 |  |
| 509-max (antibody, V domains shown) VH: EVQLVESGGGLVQPGGSLRLSCTASGFSLSSYYMCWVRQAPGKGLEWVGCLDYVGDTDYASWAKGRFTISKDASKNTVYLQMNSLRAEDTAVYYCARTDDSRGWGLNIWGQGTLVTVSS VL: EIVMTQSPSTLSASVGDRVIITCQASQNIRIWLSWYQQKPGKAPKLLIYKASTLESGVPSRFSGSGSGTEFTLTISSLQPDDFATYYCQNNAHYSTNGGTFGQGTKLTVLG |  |  | 1.45 | 0.335 | 1.65 | 0.363 | no binding | 1.21 | 0.378 |  |
| 435-min (antibody, V domains shown) VH: EVQLVESGGGLVQPGGSLRLSCAASGFSLNTNYWMCWVRQAPGKGLEWVSCMYTGSYNRAYYASWAKGRFTISRDNSKNTLYLQMNSLRAEDTAVYYCAKGSNWYSDLWGQGTLVTVSS VL: EIVMTQSPSTLSASVGDRVIITCQASQSIGSSLAWYQQKPGKAPKLLIYTAANLASGVPSRFSGSGSGAEFTLTISSLQPDDFATYYCQNFATSDTVTFGQGTKLTVLG |  |  |  |  |  |  |  |  | 28.9 | binding result [13]: no binding |
| 610-max (antibody, V domains shown) VH: EVQLVESGGGLVQPGGSLRLSCTASGIDFSGAYYMGWVRQAPGKGLEWVGYIDYDGDRYYASWAKGRFTISKDTSKNTVYLQMNSLRAEDTAVYYCARSDYSSGWGTDIWGQGTLVTVSS VL: EIVMTQSPSTLSASVGDRVIITCQASQSISSWLSWYQQKPGKAPKLLIYQASTLASGVPSRFSGSGSGTEFTLTISSLQPDDFATYYCQNNYGFRSYGGAFGQGTKLTVLG |  |  |  |  |  |  |  | 1.18 |  | koff [14]: 35.7 s⁻¹ |
| 610-min (antibody, V domains shown) VH: EVQLVESGGGLVQPGGSLRLSCAASGIDFSGAYYMGWVRQAPGKGLEWVSYIDYDGDRYYASWAKGRFTISRDNSKNTLYLQMNSLRAEDTAVYYCAKSDYSSGWGTDIWGQGTLVTVSS VL: EIVMTQSPSTLSASVGDRVIITCQASQSISSWLSWYQQKPGKAPKLLIYQASTLASGVPSRFSGSGSGAEFTLTISSLQPDDFATYYCQNNYGFRSYGGAFGQGTKLTVLG |  |  |  |  |  |  |  | 10.6 |  | binding result [15]: no binding |
| 511-max (antibody, V domains shown) VH: EVQLVESGGGLVQPGGSLRLSCTVSGFSLNTYYMNWVRQAPGKGLEWVGIIAPDDTTYYASWAKSRSTISRDTSKNTVYLQMNSLRAEDTAVYYCARSGDTTAWGADIWGQGTLVTVSS VL: EIVMTQSPSTLSASVGDRVIITCQASQSINIWLSWYQQKPGKAPKLLIYRASTLASGVPSRFSGSGSGTEFTLTISSLQPDDFATYYCQANYAYSAGYGAAFGQGTKLTVLG |  |  | 0.0613 | 0.214 | 0.106 | 0.197 | no binding | 0.0667 | 0.0856 | EC50 [16]: 0.822 nM |
| 511-min (antibody, V domains shown) VH: EVQLVESGGGLVQPGGSLRLSCAASGFSLNTYYMNWVRQAPGKGLEWVSIIAPDDTTYYASWAKSRFTISRDNSKNTLYLQMNSLRAEDTAVYYCAKSGDTTAWGADIWGQGTLVTVSS VL: EIVMTQSPSTLSASVGDRVIITCQASQSINIWCSWYQQKPGKAPKLLIYRASTLASGVPSRFSGSGSGAEFTLTISSLQPDDFATYYCQANYAYSAGYGAAFGQGTKLTVLG |  |  | 1.64 | 1.24 | 2.04 | 1.45 | no binding | 2.53 | 1.31 |  |
| 375-min (antibody, V domains shown) VH: EVQLVESGGGLVQPGGSLRLSCAASGFSFTTTDYMCWVRQAPGKGLEWVSCILAGDGSTYYANWAKGRFTISRDNSKNTLYLQMNSLRAEDTAVYYCAKSDPASSWSFALWGQGTLVTVSS VL: EIVMTQSPSTLSASVGDRVIITCQASENINIWLSWYQQKPGKAPKLLIYQASKLASGVPSRFSGSGSGAEFTLTISSLQPDDFATYYCQNNYSYNRYGAPFGQGTKLTVLG |  |  |  |  |  |  |  | 5.41 |  | koff [14]: 3.86 s⁻¹ |
